For one substance, percentage of PC12 cells with neurite outgrowth after 3 days, HB-EGF treated and rate of neurite extension induced by HB-EGF in PC12 cells in the presence of AG1478 (EGF receptor kinase inhibitor) results are on record in patent US20120053121A1.

This experiment addresses EGF receptor (EGFR) on PC12 cells. In words: cell-based or functional assay.

Turning to “GMP-grade human mature HB-EGF produced in P. pastoris yeast (from UniProt Q99075 63-148) (ligand)”, the percentage of PC12 cells with neurite outgrowth after 3 days, HB-EGF treated was 87.8% and the rate of neurite extension induced by HB-EGF in PC12 cells in the presence of AG1478 (EGF receptor kinase inhibitor) amounted to 24.3%.
